Source: paper doi:10.1101/2024.02.23.581826 (bioRxiv, 2024)
Values joined by “and” are separate entries in the source; they are usually repeats but may differ in a detail not shown here. Equal values may be shown once. Read-outs that look alike come from different tables or passages of the source.

Key:
Experiment in all cases: SPR
[1] = target: T1, isolated CNBH domain of mouse EAG1 (mEAG1) channels, residues 552-708 (mouse, UniProt Q60603 552-708)
T1 sequence (looked up): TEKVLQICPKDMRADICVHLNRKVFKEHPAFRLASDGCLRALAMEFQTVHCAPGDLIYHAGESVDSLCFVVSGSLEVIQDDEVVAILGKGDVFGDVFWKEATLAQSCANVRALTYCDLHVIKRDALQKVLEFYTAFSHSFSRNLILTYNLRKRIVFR

[2] = target: T1, isolated CNBH domain of mouse EAG1 …; remark: listed apart in the source
[3] = target: T1, isolated CNBH domain of mouse EAG1 …; remark: listed apart in the source
[4] = target: T1, isolated CNBH domain of mouse EAG1 …; remark: listed apart in the source

B1: isolated PAS domain of mouse EAG1 (mEAG1) channels, residues 7-136 (domain or fragment, UniProt Q60603 7-136, looked up)
chain: RRGLVAPQNTFLENIVRRSNDTNFVLGNAQIVDWPIVYSNDGFCKLSGYHRAEVMQKSSACSFMYGELTDKDTVEKVRQTFENYEMNSFEILMYKKNRTPVWFFVKIAPIRNEQDKVVLFLCTFSDITAF
Kd [1]: 1800 nM
Kd [2]: 2500 nM and 2900 nM
Kd [3]: 1600 nM
Kd [4]: 900 nM and 500 nM
